Data taken from the supplement of paper PMC9112550, “Optimization of the antimicrobial peptide Bac7 by deep mutational scanning” (BMC Biology, 2022).

Test system: Escherichia coli TOP10
Experiment: shrunken log2 fold change of peptide-encoding DNA abundance (4.5 h post-induction vs induction); higher = less antimicrobial activity (less host growth inhibition)
Details: time post-induction: 4.5 h; library: site-saturation at positions 5, 18, 19, 20
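Note: peptides expressed intracellularly from a pBAD plasmid library in pooled LB shake-flask culture, induced with 0.3% L-arabinose, DNA abundance read by NGS, three biological replicates, DESeq2 with apeglm shrinkage.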

| Sequence | shrunken log2 fold change |
| --- | --- |
| RRIRGRPPRLPRPRPRPLFMPRP | 0.223 |
| RRIRNRPPRLPRPRPRPVANPRP | -0.0653 |
| RRIRLRPPRLPRPRPRPAYNPRP | -0.119 |
| RRIRLRPPRLPRPRPRPPRCPRP | 0.744 |
| RRIRIRPPRLPRPRPRPFMIPRP | -0.73 |
| RRIRLRPPRLPRPRPRPSTWPRP | -0.53 |
| RRIRCRPPRLPRPRPRPVCAPRP | 0.264 |
| RRIRMRPPRLPRPRPRPIASPRP | 0.0465 |
| RRIRKRPPRLPRPRPRPAWGPRP | 0.694 |
| RRIRSRPPRLPRPRPRPIFHPRP | -0.29 |
| RRIRQRPPRLPRPRPRPCCHPRP | -0.197 |
| RRIRERPPRLPRPRPRPVIPPRP | -0.23 |
| RRIRCRPPRLPRPRPRPGWTPRP | 0.0289 |
| RRIRPRPPRLPRPRPRPTQVPRP | 0.124 |
| RRIRQRPPRLPRPRPRPTHIPRP | -0.387 |
| RRIRSRPPRLPRPRPRPYAAPRP | -0.0585 |
| RRIRLRPPRLPRPRPRPNEYPRP | -0.321 |
| RRIRLRPPRLPRPRPRPTKPPRP | 0.0884 |
| RRIRIRPPRLPRPRPRPQNDPRP | -0.296 |
| RRIRHRPPRLPRPRPRPWPRPRP | 0.166 |
| RRIRRRPPRLPRPRPRPHKSPRP | -0.0141 |
| RRIRCRPPRLPRPRPRPPPCPRP | 1.07 |
| RRIRPRPPRLPRPRPRPDPRPRP | 0.649 |
| RRIRHRPPRLPRPRPRPTHVPRP | 0.0105 |
| RRIRNRPPRLPRPRPRPYMGPRP | -1.97 |

| Sequence | shrunken log2 fold change |
| --- | --- |
| RRIRDRPPRLPRPRPRPFHCPRP | -0.194 |
| RRIRNRPPRLPRPRPRPTMNPRP | -0.134 |
| RRIRVRPPRLPRPRPRPFATPRP | 0.276 |
| RRIRIRPPRLPRPRPRPYPPPRP | -0.818 |
| RRIRNRPPRLPRPRPRPHKEPRP | 0.0155 |
| RRIRDRPPRLPRPRPRPKMYPRP | 0.0269 |
| RRIRSRPPRLPRPRPRPLSEPRP | -0.48 |
| RRIRRRPPRLPRPRPRPYKRPRP | -0.238 |
| RRIRDRPPRLPRPRPRPFHHPRP | -0.886 |
| RRIRKRPPRLPRPRPRPCRFPRP | 0.0338 |
| RRIRCRPPRLPRPRPRPNSDPRP | -0.255 |
| RRIRCRPPRLPRPRPRPPIWPRP | 0.134 |
| RRIRNRPPRLPRPRPRPLGRPRP | 0.244 |
| RRIRWRPPRLPRPRPRPQVLPRP | -0.0271 |
| RRIRERPPRLPRPRPRPYLVPRP | -0.529 |
| RRIRQRPPRLPRPRPRPKKTPRP | -0.0104 |
| RRIRKRPPRLPRPRPRPIQKPRP | 0.0671 |
| RRIRFRPPRLPRPRPRPTKVPRP | -0.157 |
| RRIRHRPPRLPRPRPRPQKMPRP | -0.132 |
| RRIRKRPPRLPRPRPRPNSIPRP | -0.0805 |
| RRIRIRPPRLPRPRPRPTIGPRP | -0.396 |
| RRIRYRPPRLPRPRPRPLVQPRP | -0.49 |
| RRIRARPPRLPRPRPRPHVSPRP | 0.0459 |
| RRIRHRPPRLPRPRPRPRKVPRP | -0.0134 |
| RRIRMRPPRLPRPRPRPSCAPRP | 0.563 |

| Sequence | shrunken log2 fold change |
| --- | --- |
| RRIRDRPPRLPRPRPRPKMWPRP | 0.123 |
| RRIRLRPPRLPRPRPRPWITPRP | -0.028 |
| RRIRDRPPRLPRPRPRPISIPRP | 0.0218 |
| RRIRKRPPRLPRPRPRPHELPRP | 0.509 |
| RRIRARPPRLPRPRPRPCACPRP | 0.0599 |
| RRIRMRPPRLPRPRPRPMVCPRP | 0.204 |
| RRIRCRPPRLPRPRPRPYQQPRP | -0.12 |
| RRIRDRPPRLPRPRPRPWLHPRP | -0.00955 |
| RRIRWRPPRLPRPRPRPHNAPRP | -0.0847 |
| RRIRTRPPRLPRPRPRPMWAPRP | 0.0473 |
| RRIRRRPPRLPRPRPRPVKHPRP | 0.25 |
| RRIRPRPPRLPRPRPRPRWYPRP | -0.0594 |
| RRIRNRPPRLPRPRPRPGLIPRP | 0.16 |
| RRIRIRPPRLPRPRPRPLFDPRP | -0.803 |
| RRIRERPPRLPRPRPRPGKMPRP | 0.0204 |
| RRIRWRPPRLPRPRPRPWHHPRP | -0.0157 |
| RRIRYRPPRLPRPRPRPRPGPRP | 0.219 |
| RRIRKRPPRLPRPRPRPSGKPRP | -0.424 |
| RRIRQRPPRLPRPRPRPIAFPRP | -0.168 |
| RRIRKRPPRLPRPRPRPFCWPRP | 0.48 |
| RRIRMRPPRLPRPRPRPWNWPRP | 0.342 |
| RRIRQRPPRLPRPRPRPPRGPRP | 2.1 |
| RRIRKRPPRLPRPRPRPETCPRP | 0.0906 |
| RRIRNRPPRLPRPRPRPRESPRP | -0.0379 |
| RRIRARPPRLPRPRPRPVLDPRP | 0.185 |

| Sequence | shrunken log2 fold change |
| --- | --- |
| RRIRNRPPRLPRPRPRPSHHPRP | -0.421 |
| RRIRNRPPRLPRPRPRPFFFPRP | 0.0988 |
| RRIRWRPPRLPRPRPRPCQMPRP | -0.0107 |
| RRIRDRPPRLPRPRPRPWMAPRP | -0.499 |
| RRIRDRPPRLPRPRPRPRGPPRP | 0.366 |
| RRIRFRPPRLPRPRPRPGTWPRP | -0.153 |
| RRIRCRPPRLPRPRPRPKNMPRP | -0.727 |
| RRIRKRPPRLPRPRPRPFLEPRP | 0.194 |
| RRIRCRPPRLPRPRPRPKTLPRP | -0.246 |
| RRIRSRPPRLPRPRPRPCWNPRP | -0.296 |
| RRIRLRPPRLPRPRPRPDFCPRP | -0.0853 |
| RRIRYRPPRLPRPRPRPRFNPRP | -0.808 |
| RRIRCRPPRLPRPRPRPQSDPRP | -0.69 |
| RRIRARPPRLPRPRPRPLLFPRP | 0.212 |
| RRIRPRPPRLPRPRPRPSNQPRP | -0.45 |
| RRIRFRPPRLPRPRPRPAFTPRP | -0.224 |
| RRIRSRPPRLPRPRPRPFAWPRP | -0.0248 |
| RRIRTRPPRLPRPRPRPAIKPRP | 0.957 |
| RRIRERPPRLPRPRPRPSDAPRP | -0.0474 |
| RRIRVRPPRLPRPRPRPHAVPRP | -0.318 |
| RRIRHRPPRLPRPRPRPYANPRP | -0.271 |
| RRIRIRPPRLPRPRPRPAADPRP | 0.0637 |
| RRIRSRPPRLPRPRPRPWYKPRP | -0.137 |
| RRIRTRPPRLPRPRPRPRPKPRP | 0.303 |
| RRIRGRPPRLPRPRPRPWMCPRP | -0.13 |

| Sequence | shrunken log2 fold change |
| --- | --- |
| RRIRCRPPRLPRPRPRPWHIPRP | -0.421 |
| RRIRGRPPRLPRPRPRPLIGPRP | 0.561 |
| RRIRSRPPRLPRPRPRPDFRPRP | -0.0983 |
| RRIRFRPPRLPRPRPRPDREPRP | -0.006 |
| RRIRPRPPRLPRPRPRPNPVPRP | -0.0737 |
| RRIRPRPPRLPRPRPRPGVGPRP | 0.53 |
| RRIRPRPPRLPRPRPRPLFSPRP | -0.103 |
| RRIRDRPPRLPRPRPRPWPIPRP | 0.00865 |
| RRIRRRPPRLPRPRPRPKLQPRP | 0.179 |
| RRIRGRPPRLPRPRPRPKWGPRP | 0.215 |
| RRIRRRPPRLPRPRPRPNKEPRP | -0.0865 |
| RRIRGRPPRLPRPRPRPQHKPRP | -0.00366 |
| RRIRERPPRLPRPRPRPTVQPRP | -0.157 |
| RRIRPRPPRLPRPRPRPCHSPRP | -0.871 |
| RRIRGRPPRLPRPRPRPMSKPRP | 0.269 |
| RRIRARPPRLPRPRPRPAGHPRP | 0.398 |
| RRIRTRPPRLPRPRPRPGSNPRP | -0.415 |
| RRIRSRPPRLPRPRPRPINYPRP | -0.336 |
| RRIRCRPPRLPRPRPRPYIPPRP | -0.771 |
| RRIRARPPRLPRPRPRPPTQPRP | 0.718 |
| RRIRNRPPRLPRPRPRPQTTPRP | -0.149 |
| RRIRTRPPRLPRPRPRPPWSPRP | 0.194 |
| RRIRPRPPRLPRPRPRPECCPRP | 0.526 |
| RRIRCRPPRLPRPRPRPNQSPRP | 2.47 |
| RRIRNRPPRLPRPRPRPELTPRP | 0.162 |

| Sequence | shrunken log2 fold change |
| --- | --- |
| RRIRDRPPRLPRPRPRPQSVPRP | -0.0496 |
| RRIRMRPPRLPRPRPRPWWMPRP | 0.0885 |
| RRIRVRPPRLPRPRPRPWIDPRP | -0.134 |
| RRIRHRPPRLPRPRPRPSYGPRP | -0.34 |
| RRIRIRPPRLPRPRPRPGIPPRP | -0.225 |
| RRIRTRPPRLPRPRPRPLWKPRP | -0.178 |
| RRIRERPPRLPRPRPRPMIRPRP | 0.0011 |
| RRIRCRPPRLPRPRPRPFMWPRP | -0.165 |
| RRIRLRPPRLPRPRPRPYQMPRP | -0.188 |
| RRIRCRPPRLPRPRPRPNTYPRP | -0.774 |
| RRIRGRPPRLPRPRPRPWFLPRP | -0.149 |
| RRIRVRPPRLPRPRPRPYFSPRP | -0.267 |
| RRIRFRPPRLPRPRPRPIKIPRP | -0.539 |
| RRIRVRPPRLPRPRPRPEQNPRP | 0.316 |
| RRIRVRPPRLPRPRPRPFVAPRP | -0.118 |
| RRIRSRPPRLPRPRPRPPEDPRP | 0.0304 |
| RRIRTRPPRLPRPRPRPMNVPRP | 0.0707 |
| RRIRARPPRLPRPRPRPVLMPRP | 0.199 |
| RRIRERPPRLPRPRPRPKKEPRP | -0.0367 |
| RRIRGRPPRLPRPRPRPNARPRP | 0.501 |
| RRIRMRPPRLPRPRPRPPHNPRP | 0.767 |
| RRIRKRPPRLPRPRPRPPNRPRP | 0.151 |
| RRIRYRPPRLPRPRPRPEISPRP | -0.00407 |
| RRIRTRPPRLPRPRPRPIRSPRP | 0.0601 |
| RRIRERPPRLPRPRPRPNHPPRP | -0.278 |
